# Results reported in the supplement of paper PMC9170038.
# System: MS2 coat protein
# Experiment: apparent KD of MS2 coat protein; designed switch direction (-1 OFF switch, 1 ON switch): -1; higher = weaker reporter binding
# Summary of the method: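 Each step of the titration lasted 0.8–1.5 h at the lowest concentration and 10–20 min at the highest. The protein, SNAP-549-labelled MS2 coat protein, went from 0.7 or 1.5 nM doubling to 3 µM over RNA switches transcribed on Illumina chips by stalled E. coli RNA polymerase. Normalised cluster fluorescence was curve-fitted, and the per-design median over clusters is given as apparent KD.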
# [1] = Eterna round: R95, input ligand: FMN 200 uM
# [2] = Eterna round: R95, input ligand: microRNA oligo, concentration not stated
# [3] = Eterna round: R95, input ligand: none
# [4] = input ligand: microRNA oligo, concentration not stated
Sequence,apparent KD of MS2 coat protein [1],apparent KD of MS2 coat protein [2],apparent KD of MS2 coat protein [3],apparent KD of MS2 coat protein (input ligand: FMN 200 uM),apparent KD of MS2 coat protein [4],apparent KD of MS2 coat protein (input ligand: none)
"AGUGCUGGCGCGUCGGUGUUGGUGCAAUAAGCUUGUGAAACAUGAGGAUCACCCAUGUCCUCAUAAGCUCGUCUUAU [salish99_TOv2_r2_085] (puzzle: Sensor v3, turn-off variant 2)",17.1 nM,732 nM,15.8 nM,,,
"ACAUGAGGAUCACCCAUGUAAUCAUAAUGGCUGAUGUAGAGUCAGGAUAUGUGUGGCUAACAAUCGCAGAAGGGACAAGACUGG [Deportation 32 - Jieux - Exclusion NG 3] (Eterna round: R96, puzzle: Exclusion NG 3)",,,,31.4 nM,21.6 nM,29.5 nM
"UUCGUUUUAGGAUAUACAGGGUUGGUCGACAACUCACUGUCACAUGAGGAUCACCCAUGUAGAAGGGAGAGAAG [Eternabot (L1) Solution 49] (Eterna round: R97, puzzle: Exclusion 2)",,,,244 nM,,198 nM
CCGCAAAUGGAGGAUAUCGUAUCGGAGACGAUACGAGAAGGCCAAACAUGAGGAUCACCCAUGUGUCCUAGCGG [Mat - Exclusion 6 - Eli Mod - D102] (puzzle: Exclusion 6),29.3 nM,15.1 nM,16 nM,,,
"GCGGACUGGAUCGUGAGAUCCGAGACAUGAGGAUCACCCAUGUAGGAUAUCGAUUGCUUUGCAGUCGAGAAGGGCGUGGUCCGC [JL denovo 16] (Eterna round: R96, puzzle: Exclusion NG 3)",,,,54.6 nM,44.9 nM,59.3 nM
"CAGCCCUGAGGAUAUCCCUCCUUGUACAUGAGGAUCACCCAUGUUCUCCUCUGGGCUUUGGGAGAAGGCAGAUCUC [Megrez-6.9] (Eterna round: R97, puzzle: Exclusion 5)",,,,41.1 nM,,46.5 nM
UAUAAUCGAGGAUAUACAUGAGGAUCACCCAUGUGUUGCCGCGUGACAUGAUCGUCAGGUAGAAGGCGAUUAUA [Exclusion 3 - Mod of Jieux's Gilly Gone Silly 23 v.10] (puzzle: Exclusion 3),,147 nM,,,,
GCACGGUAAGUGAGGAUAUACCUCUGGAUACAGAGGUAGAAGGCACAUGAGGAUCACCCAUGUCUAAGCCGUGC [Fiskers BMX 4 - 83] (puzzle: Brourd's mod of Exclusion 4),,14.7 nM,,,,
UUAUUGUGAGGAUAUCAGGUGUGCUAGCGUACUGGUACAUCUGAGAAGGCACAUGAGGAUCACCCAUGUUUCUU [JL-ex4-3.22 Brourd mod] (puzzle: Exclusion 4),,21.1 nM,,,,
ACUAGAUGAGGAUAUGCAUAUUUUCGUGUUCUUCUAGGUUAACAUGAGGAUCACCCAUGUAGAAGGCGUCUAUA [Exclusion 2 - 22] (puzzle: Exclusion 2),,21.3 nM,,,,
"UACAUGAGGAUCACCCAUGUUUUAUCAUGUGUAAUAAUAAUGUAGGAUAUGUAUUAUUUAUUUUAACAGAAGGACAAUAAUAAA [JMF's solution 1] (Eterna round: R96, puzzle: Exclusion NG 3)",,,,279 nM,265 nM,362 nM
"GAGUGCUGAGGAUAUACAUGAGGAUCACCCAUGUGCUUCAGCUAGGAGACUAGUAUCAGUAGAAGGCAGUACUC [Mod of lroppy 20 - Jieux - Exclusion 3] (Eterna round: R97, puzzle: Exclusion 3)",,,,57.3 nM,,14.7 nM
"UUAUAACAUGAGGAUCACCCAUGUUAGGAUAUCGCAGUAAGCUUCAGUAAUGAGCAUUCGAGAAGGAACGGGUA [Eternabot (L2) Solution 63] (Eterna round: R97, puzzle: Exclusion 1)",,,,22 nM,,22 nM
"GGCUGACAUGUAGGAUAUCUGCACGUGUAGUGCAGAGAAGGACAUGAGGAUCACCCAUGUAUAGCGACUUCGGUCGCAACAGCC [ENG1/2-A3] (Eterna round: R96, puzzle: Exclusion NG 1)",,,,,35.9 nM,
"ACGCAUUGCCAAAGGUAAUGCGUUACAUGAGGAUCACCCAUGUAGGAUAUGGUAGGCAAAGCUUACCAGAAGGACAUGAUAAUU [Mat - Exclusion NG 3 - Mod of JL - D7] (Eterna round: R96, puzzle: Exclusion NG 3)",,,,219 nM,40 nM,57 nM
"UUGAGACAUGAGGAUCACCCAUGUAAGGAUAUAGUCGUCUGGUGGUCUCGGGUGGUGGCUAGAAGGUGCGUGCG [-15.7, 14.3 kcal, A 20%] (Eterna round: R97, puzzle: Exclusion 1)",,,,241 nM,,239 nM
CAUACUCAAGUGAGGAUAUAGUCUCGGAUACGAAACUAGAAGGCACAUGAGGAUCACCCAUGUAGAGAGUAAAG [EX-4 Malc #29] (puzzle: Brourd's mod of Exclusion 4),62.7 nM,18.5 nM,13.1 nM,,,
CUAGUCCGAGGAUAUAUUAUGUGAAACAUGAGGAUCACCCAUGUAAUAUGAUGGAUGUAAAUAGAAGGCGGACUAG [Mat - Exclusion 5 - JL mod - D25] (puzzle: Exclusion 5),37.9 nM,17.4 nM,36.1 nM,,,
"CUGAGGUAGCGGUCCUAUGACAUGAGGAUCACCCAUGUGCCUUGCUACAAGCUUUUUGCUCGUUUUAUGAUUCUCGG [JL Atriat mod 10] (puzzle: Sensor v3, turn-off variant 1)",72.8 nM,64.6 nM,83.5 nM,,,
"AAGUACCGUCACGAUAGUGAUGGUACAACAGGUAAAUGUACAUGAGGAUCACCCAUGUCCUCUUUUGCUCGUCUUAU [Sensor 3 - 93] (puzzle: Sensor v3, turn-off variant 2)",147 nM,36.2 nM,160 nM,,,
ACCUCACAUGAGGAUCACCCAUGUCAGGAUAUACAAACCGUGUAAAGACACGGUCGUAGUAGAAGGGACUAUGG [Telalebees] (puzzle: Exclusion 1),,59.1 nM,,,,
"AGAGUGCUGCGAGGAUAUACAUGAGGAUCACCCAUGUAUUAGUGUGAGGCUUUGCCUCACACAAUGUAGAAGGCGCAGUACUCA [Mat - Exclusion NG 2 - Mod of JL - D8] (Eterna round: R96, puzzle: Exclusion NG 2)",,,,6.8 nM,11.1 nM,12.4 nM
"AGAUGCUCGAGUCGACAUGAGGAUCACCCAUGUACAGUUAGUGAGGAUAUCUGAGACACAUAGUAGGAGAAGGCGCGAACAUGA [Ex NG3 #13] (Eterna round: R96, puzzle: Exclusion NG 3)",,,,132 nM,43.4 nM,60 nM
"CGGGUGAAUAGAGGAUAUAGUACAUGAGGAUCACCCAUGUAAUAAAUGAGAAUUUCGAAUGUAAUCUAGAAGGCUAGAAAACCC [Ostracism 99 - Jieux - Exclusion NG 2] (Eterna round: R96, puzzle: Exclusion NG 2)",,,,367 nM,150 nM,274 nM
AUGAAGUAAGGAUAUACAUGAGGAUCACCCAUGUAAAGAAAAGUAAUGGGAGUAAGAAGUAGAAGGUACGAGAA [JR_Exclu3_Sub061] (puzzle: Exclusion 3),53.4 nM,48.2 nM,54.1 nM,,,
"AGCUGUGGCCGAGGAUAUCUGAACUUUCAAACCGAAAUAUAAUCGGACAUGAGGAUCACCCAUGUAGAGAAGGCGGUCUCAGCA [Eli eng2 - 061] (Eterna round: R96, puzzle: Exclusion NG 2)",,,,,10.5 nM,
"CGGGUUCGUGUUAGGAUAUGCACGCACCCGUUGCGGCAGAAGGAACAUGAGGAUCACCCAUGUGAAUAAGAAAG [BmEX4 A.21] (Eterna round: R97, puzzle: Brourd's mod of Exclusion 4)",,,,17.1 nM,,15.5 nM
CUAUGUUAGCAGGAUAUGCCAUUAUUCCUUUUCGCAGAAGGGCUUACAUGAGGAUCACCCAUGUUACAUUUCUU [JR_E6_Sub085] (puzzle: Exclusion 6),,13.3 nM,,,,
"ACAAGCUUUUUGUUCGUCUUAUACACUCCUAAUAGGACAACAUGAGGAUCACCCAUGUAACAAAGACGAACUCAUGU [Sesor Array 9 - Jieux - Sensor v3, turn-off variant 2] (puzzle: Sensor v3, turn-off variant 2)",11.6 nM,169 nM,9.63 nM,,,
"GCACUCUUGUGAGGAUAUCGUUAAGGGACUUAACGAGAAGGUACAUGAGGAUCACCCAUGUGGAUCCUCCCGUUUGGAUCACUU [Eternabot solution 3] (Eterna round: R96, puzzle: Exclusion NG 1)",,,,177 nM,103 nM,112 nM
